Data as given in article PMC6768288, “Biochemical and structural characterization of tyrosine aminotransferase suggests broad substrate specificity and a two‐state folding mechanism in Leishmania donovani” (FEBS Open Bio, 2019).

Legend:
Assay in all cases: purified protein
Type in all cases: biochemical, Leishmania donovani
purified protein [1] = substrate: CC(=O)C(=O)O; conditions: co-substrate Tyr 4 mM; sodium pyruvate 0-200 mM; PLP 30 μM, 37 °C
purified protein [2] = substrate: N[C@@H](Cc1c[nH]c2ccccc12)C(=O)O; conditions: co-substrate sodium pyruvate 100 mM; Trp 0-7 mM; PLP 30 μM, 37 °C
purified protein [3] = substrate: Cc1ncc(COP(=O)(O)O)c(C=O)c1O; conditions: tyrosine-sodium pyruvate as substrates; covalent internal aldimine with K286; varied: cofactor
purified protein [4] = substrate: N[C@@H](Cc1ccc(O)cc1)C(=O)O; conditions: co-substrate sodium pyruvate 100 mM; Tyr 0-7 mM; PLP 30 μM, 37 °C
purified protein [5] = substrate: N[C@@H](Cc1ccccc1)C(=O)O; conditions: co-substrate sodium pyruvate 100 mM; Phe 0-7 mM; PLP 30 μM, 37 °C
purified protein [6] = substrate: CSCCC(=O)C(=O)O; conditions: co-substrate Tyr 4 mM; KMB 0-4.5 μM; PLP 30 μM, 37 °C

B1: LdTAT (Leishmania donovani) (protein)
chain: MTIDTQAAPAAQTLKAGNATGSLTEERREVEQQRAAENTSFRRIASSKHAQRTLQPLNNLTDNMKPSRSTKSNLRLSIGDPTVDGNLKTPDIVTEAMVDIVRSGKFNGYPPTVGADNLRQVVSTYWRRFCQTKSRQEALKWENVIITSGVSQAIVLALTALCNEGDNILVCAPSFPHYKSVCDSYGIECRYYYLDPSKSWECDLRAAAGMVDSHTKAFVIINPSNPCGSNFSRAHVSDIIDFCQQHQIPLISDEIYAEMVLNNGIFTSVADFDTNVPRLILGGTAKYQVCPGWRVGWSILIDPMNVAGDWAVGMERLTQLIAGVNSICQEAIARTLLKCPAECTEHIVTQLEAGAKVYARLLEHDIGISMEAPQASMFVMLKLNLSYFQDLKSDMEFYEKLLDEENVQVLPGEIFGMSGFLRATVSRPSAVLNEAVDRIIEFCERHKK
notes: full-length ORF 1347 bp (448 residues from ORF length) amplified from L. donovani genomic DNA; pET28a(+) BamHI/HindIII, His-tagged, E. coli BL21, Ni-NTA
Km (purified protein [1]): 42.67 ± 0.38 mM | Vmax (purified protein [1]): 8600 µM/min/mg | Km (purified protein [2]): 5.055 ± 0.42 mM | Vmax (purified protein [2]): 19900 µM/min/mg | Km (purified protein [3]): 0.02359 ± 0.00399 mM | Km (purified protein [4]): 3.5 ± 0.90 mM | Vmax (purified protein [4]): 11700 µM/min/mg | Km (purified protein [5]): 3.752 ± 0.96 mM | Vmax (purified protein [5]): 19800 µM/min/mg | Km (purified protein [6]): 0.0008103 ± 0.00011 mM | Vmax (purified protein [6]): 1850 µM/min/mg
